The test system of one data set is pMol 21. The settings on record: PCR product fidelity, rpsL / pMol 21 method; cited from earlier work.
A further data set concerns M13 single-stranded DNA. The settings on record: Takagi et al. 1997; cited from earlier work.
Data set [1] deals with the molecule itself. Briefly: gel filtration HPLC (TSKgel G3000SW), molecular weight against standard samples.
The target in data set [2] is T1, KOD DNA polymerase (DNA polymerase derived from Thermococcus kodakaraensis KOD1) (Thermococcus kodakaraensis KOD1, UniProt P77933 1-1671).
T1 sequence: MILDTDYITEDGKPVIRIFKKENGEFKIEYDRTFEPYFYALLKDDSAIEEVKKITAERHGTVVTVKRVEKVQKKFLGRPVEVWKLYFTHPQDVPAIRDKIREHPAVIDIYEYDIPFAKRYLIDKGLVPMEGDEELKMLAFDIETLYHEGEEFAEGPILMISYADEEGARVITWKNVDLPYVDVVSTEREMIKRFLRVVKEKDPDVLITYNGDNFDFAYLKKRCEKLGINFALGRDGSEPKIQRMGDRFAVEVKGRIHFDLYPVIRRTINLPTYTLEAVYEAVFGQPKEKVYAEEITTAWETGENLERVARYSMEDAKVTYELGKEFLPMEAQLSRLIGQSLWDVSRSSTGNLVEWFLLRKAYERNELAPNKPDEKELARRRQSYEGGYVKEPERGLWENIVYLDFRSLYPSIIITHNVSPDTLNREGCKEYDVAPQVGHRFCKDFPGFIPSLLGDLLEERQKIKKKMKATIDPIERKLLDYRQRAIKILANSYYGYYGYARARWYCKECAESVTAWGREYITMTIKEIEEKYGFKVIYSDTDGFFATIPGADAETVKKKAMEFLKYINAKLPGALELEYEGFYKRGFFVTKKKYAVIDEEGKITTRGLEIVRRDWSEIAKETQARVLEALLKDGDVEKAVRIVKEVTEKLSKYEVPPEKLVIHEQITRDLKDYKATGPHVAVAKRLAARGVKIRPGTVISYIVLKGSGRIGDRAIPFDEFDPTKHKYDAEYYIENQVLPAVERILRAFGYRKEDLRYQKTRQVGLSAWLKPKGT
As to the kind of experiment: cell-based or functional assay.

Some results are limits rather than exact numbers.

Turning to “Taq polymerase: DNA polymerase derived from Thermus aquaticus”, the mutation rate in the data set on pMol 21 is recorded as no less than 4%. For the same molecule, the DNA elongation rate with M13 single-stranded DNA is on record as 61.0 bases/second.

B1: KOD-PCNA (proliferating cell nuclear antigen) derived from Thermococcus kodakaraensis KOD1 (other)
chain: PFEVVFDGAKEFADLIATASNLIDEAAFKFTEEGISMRAMDPSRVVLIDLNLPESIFSKYEVEEPETIGINMDQFKKILKRGKAKDTLILRKGDENFLEITFEGTAKRTFRLPLIDVEELELELPELPFTAKVVLLGEVLKEGIKDASLVSDAIKFIAKENEFTMKAEGETNEVEIRLTLEDEGLLDLEVEEETKSAYGISYLSDMVKGIGKADEVILRFGNEMPLQMEYMIRDEGRLTFLLAPRVEE
notes: also called KOD-PCNA protein; KOD-PCNA complex
As for B1, in data set [1], the binding result is “binds”. Besides, the “DNA elongation rate relative to the sample with no PCNA added” value in data set [2] is roughly 3 times.

B2: Pfu polymerase: DNA polymerase derived from Pyrococcus furiosus (protein, UniProt P61875 1-775, looked up)
DNA polymerase: MILDVDYITEEGKPVIRLFKKENGKFKIEHDRTFRPYIYALLRDDSKIEEVKKITGERHGKIVRIVDVEKVEKKFLGKPITVWKLYLEHPQDVPTIREKVREHPAVVDIFEYDIPFAKRYLIDKGLIPMEGEEELKILAFDIETLYHEGEEFGKGPIIMISYADENEAKVITWKNIDLPYVEVVSSEREMIKRFLRIIREKDPDIIVTYNGDSFDFPYLAKRAEKLGIKLTIGRDGSEPKMQRIGDMTAVEVKGRIHFDLYHVITRTINLPTYTLEAVYEAIFGKPKEKVYADEIAKAWESGENLERVAKYSMEDAKATYELGKEFLPMEIQLSRLVGQPLWDVSRSSTGNLVEWFLLRKAYERNEVAPNKPSEEEYQRRLRESYTGGFVKEPEKGLWENIVYLDFRALYPSIIITHNVSPDTLNLEGCKNYDIAPQVGHKFCKDIPGFIPSLLGHLLEERQKIKTKMKETQDPIEKILLDYRQKAIKLLANSFYGYYGYAKARWYCKECAESVTAWGRKYIELVWKELEEKFGFKVLYIDTDGLYATIPGGESEEIKKKALEFVKYINSKLPGLLELEYEGFYKRGFFVTKKRYAVIDEEGKVITRGLEIVRRDWSEIAKETQARVLETILKHGDVEEAVRIVKEVIQKLANYEIPPEKLAIYEQITRPLHEYKAIGPHVAVAKKLAAKGVKIKPGMVIGYIVLRGDGPISNRAILAEEYDPKKHKYDAEYYIENQVLPAVLRILEGFGYRKEDLRYQKTRQVGLTSWLNIKKS
Consider B2, for which the DNA elongation rate with M13 single-stranded DNA was 24.8 bases/second.

The values are drawn from US20050069887A1, “Dna synthesis promoters dna polymerase-associated factors and utilization thereof” (priority 2001, published 2005).
